Measurements reported in patent publication US20220153863A1 (published 2022).
Substitutions are numbered along the chain they refer to.

T1: PRAME peptide, amino acids Arg310-Asn331 of PRAME, conjugated to biotin or BSA (UniProt P78395 310-331, conjugated to either biotin or bovine serum albumin (BSA); site not stated)
T1 construct: range 310-331
T1 peptide (looked up): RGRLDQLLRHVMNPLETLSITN

B1: B029_1G7 scFv displayed on phage (monoclonal phage clone) (scFv, V domains shown)
VH: EVQLLESGGGLVQPGGSLRLSCAASGFTFTDSAMSWVRQAPGKGLEWVSDIDGSGSGGGTYYADSVKGRFTISRDNSKNTLYLQMNSLRAEDTAVYYCATDRGWGTFDFWGQGTLVTVSS
VL: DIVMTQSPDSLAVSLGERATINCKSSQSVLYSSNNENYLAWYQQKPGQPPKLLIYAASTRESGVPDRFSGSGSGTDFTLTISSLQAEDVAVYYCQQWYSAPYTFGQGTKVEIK
B2: B029_2D4 scFv displayed on phage (monoclonal phage clone) (scFv, V domains shown)
VH: EVQLLESGGGLVQPGGSLRLSCAASGFTFSSYAMSWVRQAPGKGLEWVSAISGSGDSTYYADSVKGRFTISRDNSKNTLYLQMNSLRAEDTAVYYCARDVDSFEGGMDVWGQGTTVTVSS
VL: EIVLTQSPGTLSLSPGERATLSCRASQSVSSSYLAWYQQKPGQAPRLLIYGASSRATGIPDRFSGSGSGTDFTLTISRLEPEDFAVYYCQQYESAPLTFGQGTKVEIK
B3: B029_1A6 scFv displayed on phage (monoclonal phage clone) (scFv, V domains shown)
VH: EVQLLESGGGLVQPGGSLRLSCAASGFTFSNYAMSWVRQAPGKGLEWVSAISGSGGSTYYADSVKGRFTISRDNSKNTLYLQMNSLRAEDTAVYYCARGGLVLSPWGQGTLVTVSS
VL: EIVLTQSPGTLSLSPGERATLSCRASQSVSSNSLAWYQQKPGQAPRLLIYDASSRATGIPDRFSGSGSGTDFTLTISRLEPEDFAVYYCQQYESSPLTFGQGTKVEIK
B4: B029_2H1 scFv displayed on phage (monoclonal phage clone) (scFv, V domains shown)
VH: EVQLLESGGGLVQPGGSLRLSCAASGFTFTDYAMSWVRQAPGKGLEWVSWISGSGGSTKYADSVKGRFTISRDNSKNTLYLQMNSLRAEDTAVYYCAKCYDILTGYSIDYGMDVWGQGTTVTVSS
VL: B3 VL with N32T, S33Y, D51G, E93S, S95A, L97F
B5: B029_1A7 scFv displayed on phage (monoclonal phage clone) (scFv, V domains shown)
VH: EVQLLESGGGLVQPGGSLRLSCAASGFTFSSYWMSWVRQAPGKGLEWVSDISGSGGSTYYADSVKGRFTISRDNSKNTLYLQMNSLRAEDTAVYYCASLPDSSGYYHWFDPWGQGTLVTVSS
VL: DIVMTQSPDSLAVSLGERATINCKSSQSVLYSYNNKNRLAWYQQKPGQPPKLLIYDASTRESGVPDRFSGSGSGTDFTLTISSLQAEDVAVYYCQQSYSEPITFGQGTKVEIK
B6: B029_1H1 scFv displayed on phage (monoclonal phage clone) (scFv, V domains shown)
VH: EVQLLESGGGLVQPGGSLRLSCAASGFTFSSYAMSWVRQAPGKGLEWVSEIDGEGDSTKYADSVKGRFTISRDNSKNTLYLQMNSLRAEDTAVYYCAKEYYDIFDGTDVWGQGTTVTVSS
VL: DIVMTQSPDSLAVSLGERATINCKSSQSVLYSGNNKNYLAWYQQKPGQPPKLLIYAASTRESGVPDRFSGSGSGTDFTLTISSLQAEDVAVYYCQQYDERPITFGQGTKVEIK
B7: B029_1A7 full-length human IgG1 (antibody, V domains shown)
VH: B5 VH
VL: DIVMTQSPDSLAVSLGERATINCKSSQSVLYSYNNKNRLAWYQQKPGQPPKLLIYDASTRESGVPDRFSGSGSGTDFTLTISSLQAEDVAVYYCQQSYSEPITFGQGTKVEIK

Biological target: T1, PRAME peptide, amino acids …
Experiment: ELISA with monoclonal phage supernatants
Excerpt: 184 PRAME binding phage clones yielded 35 membrane target hits with 6 unique sequences. Clones with unique antibody sequences were chosen for further analysis.

Does B1 bind?
Result: binds

Does B2 bind?
Result: binds

Does B3 bind?
Result: binds

Does B4 bind?
Result: binds

Does B5 bind?
Result: binds

Does B6 bind?
Result: binds

What follows are binders tested against T2, PRAME (Preferentially Expressed Antigen in Melanoma) on PRAME+ cells (human, UniProt P78395 1-509) (assay: flow cytometry, titrated antibody on THP-1 cells).
T2 construct: whole, on cells; Endogenous PRAME on the THP-1 human cell line; also called THP-1 cells
Excerpt: MPA1 (Pankov et al., 2017), a rabbit anti-PRAME polyclonal antibody was included as reference for comparison.

T2 sequence (P78395 whole entry): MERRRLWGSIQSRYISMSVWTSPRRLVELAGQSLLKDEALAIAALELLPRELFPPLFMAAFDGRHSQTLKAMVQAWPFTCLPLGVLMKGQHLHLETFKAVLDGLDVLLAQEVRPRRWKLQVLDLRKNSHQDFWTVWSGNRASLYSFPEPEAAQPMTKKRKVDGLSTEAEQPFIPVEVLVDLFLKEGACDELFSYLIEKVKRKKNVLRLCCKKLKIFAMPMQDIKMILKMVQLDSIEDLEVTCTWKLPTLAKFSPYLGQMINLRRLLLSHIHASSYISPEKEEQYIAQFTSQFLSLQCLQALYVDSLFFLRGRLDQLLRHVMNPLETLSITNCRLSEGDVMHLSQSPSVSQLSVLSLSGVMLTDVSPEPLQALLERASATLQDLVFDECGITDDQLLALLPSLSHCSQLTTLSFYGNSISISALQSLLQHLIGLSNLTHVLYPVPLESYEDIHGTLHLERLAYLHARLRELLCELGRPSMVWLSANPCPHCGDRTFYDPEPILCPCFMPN

B7 was tested. Which EC50 did it give?
Its EC50 is 1.45 nM.
